Measured values taken from patent publication US20250304624A1 (published 2025).
Positions of bridges follow the written chain, without caps; N, C: chain ends. Non-standard residues stand in square brackets, D forms with d. Groups on a side chain read outwards from the residue. *: point of attachment. PEG12 = NCCOCCOCCOCCOCCOCCOCCOCCOCCOCCOCCOCCOCCC(=O)O; Dip = N[C@H](C(=O)O)C(c1ccccc1)c1ccccc1; Palmitoyl = CCCCCCCCCCCCCCCC(=O)*; Isovaleryl = CC(C)CC(=O)*

Target: T1, human ferroportin (SLC40A1) fused in frame with GFP, stably expressed in HEK293 cells (human, UniProt Q9NP59 1-571)
T1 sequence (looked up): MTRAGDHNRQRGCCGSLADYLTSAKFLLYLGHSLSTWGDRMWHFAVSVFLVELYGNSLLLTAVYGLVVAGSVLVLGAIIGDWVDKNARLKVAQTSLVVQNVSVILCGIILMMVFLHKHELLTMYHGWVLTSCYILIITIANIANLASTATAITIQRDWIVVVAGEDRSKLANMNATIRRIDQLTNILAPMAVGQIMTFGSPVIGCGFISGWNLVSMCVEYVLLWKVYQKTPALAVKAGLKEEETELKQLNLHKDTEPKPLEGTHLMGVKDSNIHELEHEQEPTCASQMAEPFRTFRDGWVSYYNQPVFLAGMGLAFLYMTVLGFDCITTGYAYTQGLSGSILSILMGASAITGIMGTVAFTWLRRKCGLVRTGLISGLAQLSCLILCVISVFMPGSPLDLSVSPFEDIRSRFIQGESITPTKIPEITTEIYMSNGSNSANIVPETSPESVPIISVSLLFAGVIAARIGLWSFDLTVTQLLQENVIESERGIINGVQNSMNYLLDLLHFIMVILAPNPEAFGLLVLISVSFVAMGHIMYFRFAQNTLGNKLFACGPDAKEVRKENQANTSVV
Experiment: cell-based or functional assay

- FPN IC50: 69 nM
Binder: Isovaleryl-DIH[Dip]PCI[dK]FK([PEG12-Palmitoyl])[dK]C-NH2 (disulfide 6-12 (inferred)) [Compd ID 130]
